Test [1] addresses T1, human FcγRIA α subunit extracellular domain-His6-GST fusion (human, UniProt P12314 16-292).
T1 construct: extracellular domain; also called GST-FcγRIA; CD64; not shown: glutathione S transferase (GST)
The test can be described thus: FcγRI ELISA and THP-1 cells, averaged. (In general: An ELISA detects its analyte on a solid surface through an enzyme-linked reagent.)

Test [2] concerns the target T2, human FcγRIIIA-Phe158 α subunit extracellular domain-His6-GST fusion (human, UniProt P08637 17-208).
T2 construct: extracellular domain; also called FcγRIIIA-F158; CD16; not shown: glutathione S transferase (GST)
Description: hexamer ELISA.

The target of test [3] is T3, human FcγRIIB α subunit extracellular domain-His6-GST fusion (human, UniProt P31994 43-217).
T3 construct: extracellular domain; also called CD32; not shown: glutathione S transferase (GST)
T3 sequence: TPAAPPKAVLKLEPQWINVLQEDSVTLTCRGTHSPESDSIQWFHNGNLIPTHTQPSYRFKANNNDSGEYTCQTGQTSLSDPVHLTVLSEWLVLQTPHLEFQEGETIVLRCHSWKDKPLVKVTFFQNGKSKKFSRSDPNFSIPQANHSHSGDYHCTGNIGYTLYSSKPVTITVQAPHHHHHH
The test can be described thus: hexamer ELISA.

Test [4] has as its target T4, human FcγRIIA-Arg131 α subunit extracellular domain-His6-GST fusion (human, UniProt P12318 34-217).
T4 construct: extracellular domain; also called FcγRIIA-R131; not shown: glutathione S transferase (GST)
T4 sequence: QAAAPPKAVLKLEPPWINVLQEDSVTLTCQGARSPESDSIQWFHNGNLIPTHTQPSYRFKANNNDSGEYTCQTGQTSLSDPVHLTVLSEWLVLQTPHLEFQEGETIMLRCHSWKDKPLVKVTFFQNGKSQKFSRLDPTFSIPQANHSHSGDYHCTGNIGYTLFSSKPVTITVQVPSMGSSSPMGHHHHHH
Description: hexamer ELISA.

The target in test [5] is T5, human neonatal Fc receptor (FcRn), biotinylated (human, UniProt P55899 24-297; P61769 21-119, biotinylated (biotin-X-NHS)).
T5 construct: captured on streptavidin plates
T5 sequence (P55899 24-297 limits assumed, chain 1 of 2): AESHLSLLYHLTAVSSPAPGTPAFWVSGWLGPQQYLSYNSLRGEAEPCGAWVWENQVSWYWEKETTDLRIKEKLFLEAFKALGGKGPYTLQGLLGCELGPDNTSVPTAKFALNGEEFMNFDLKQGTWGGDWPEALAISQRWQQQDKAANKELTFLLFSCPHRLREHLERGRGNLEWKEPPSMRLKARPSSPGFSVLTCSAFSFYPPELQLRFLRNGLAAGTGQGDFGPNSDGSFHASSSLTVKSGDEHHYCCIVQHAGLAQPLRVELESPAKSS
T5 sequence (P61769 21-119 limits assumed, chain 2 of 2): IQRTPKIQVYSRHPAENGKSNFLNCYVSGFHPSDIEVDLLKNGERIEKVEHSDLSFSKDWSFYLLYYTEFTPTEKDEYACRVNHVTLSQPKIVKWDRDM
Description: FcRn ELISA, pH 6.0.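 Also: Streptavidin-captured FcRn plates, IgG variants titrated 2 h at pH 6.0, peroxidase anti-human IgG read at 450 nm, variant over standard concentration at the standard curve mid-point absorbance.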

T1 sequence (P12314 other isoform, or with tags, fused parts or gaps): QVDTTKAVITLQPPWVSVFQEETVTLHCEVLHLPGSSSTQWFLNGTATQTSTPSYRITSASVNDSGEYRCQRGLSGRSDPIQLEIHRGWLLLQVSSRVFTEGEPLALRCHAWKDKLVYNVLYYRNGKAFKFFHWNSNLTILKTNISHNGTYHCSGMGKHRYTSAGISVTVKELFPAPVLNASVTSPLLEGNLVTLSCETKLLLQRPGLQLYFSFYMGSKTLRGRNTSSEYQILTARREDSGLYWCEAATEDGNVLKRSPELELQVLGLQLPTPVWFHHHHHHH
T2 sequence (P08637 other isoform, or with tags, fused parts or gaps): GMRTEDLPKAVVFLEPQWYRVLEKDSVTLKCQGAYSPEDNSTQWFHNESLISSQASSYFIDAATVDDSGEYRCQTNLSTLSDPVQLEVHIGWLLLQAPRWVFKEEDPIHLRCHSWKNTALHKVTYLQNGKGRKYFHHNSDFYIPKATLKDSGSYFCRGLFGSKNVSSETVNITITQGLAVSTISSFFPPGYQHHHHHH

B1: anti-IgE E27 IgG1 His285Ala (antibody)
heavy: not shown
light: DIQLTQSPSSLSASVGDRVTITCRASKPVDGEGDSYLNWYQQKPGKAPKLLIYAASYLESGVPSRFSGSGSGTDFTLTISSLQPEDFATYYCQQSHEDPYTFGQGTKVEIKRTVAAPSVFIFPPSDEQLKSGTASVVCLLNNFYPREAKVQWKVDNALQSGNSQESVTEQDSKDSTYSLSSTLTLSKADYEKHKVYACEVTHQGLSSPVTKSFNRGEC
With B1, the “ratio to native IgG1” value is 0.96 ratio in test [1]; 0.87 ratio in test [2]; 1.23 ratio in test [3]; 1.26 ratio in test [4]; 0.85 ratio in test [5].

B2: anti-IgE E27 IgG1 Ile253Ala (antibody)
heavy: not shown
light: DIQLTQSPSSLSASVGDRVTITCRASKPVDGEGDSYLNWYQQKPGKAPKLLIYAASYLESGVPSRFSGSGSGTDFTLTISSLQPEDFATYYCQQSHEDPYTFGQGTKVEIKRTVAAPSVFIFPPSDEQLKSGTASVVCLLNNFYPREAKVQWKVDNALQSGNSQESVTEQDSKDSTYSLSSTLTLSKADYEKHKVYACEVTHQGLSSPVTKSFNRGEC
For B2, the “ratio to native IgG1” value came out at 0.96 ratio in test [1]; 1.08 ratio in test [2]; 1.18 ratio in test [3]; 1.14 ratio in test [4]; 0.1 ratio in test [5].

B3: anti-IgE E27 IgG1 Pro238Ala (antibody)
heavy: not shown
light: DIQLTQSPSSLSASVGDRVTITCRASKPVDGEGDSYLNWYQQKPGKAPKLLIYAASYLESGVPSRFSGSGSGTDFTLTISSLQPEDFATYYCQQSHEDPYTFGQGTKVEIKRTVAAPSVFIFPPSDEQLKSGTASVVCLLNNFYPREAKVQWKVDNALQSGNSQESVTEQDSKDSTYSLSSTLTLSKADYEKHKVYACEVTHQGLSSPVTKSFNRGEC
Take B3: the “ratio to native IgG1” value is 0.6 ratio in test [1]; 0.07 ratio in test [2]; 0.36 ratio in test [3]; 0.38 ratio in test [4]; 1.49 ratio in test [5].

B4: anti-IgE E27 IgG1 Lys317Ala (antibody)
heavy: not shown
light: DIQLTQSPSSLSASVGDRVTITCRASKPVDGEGDSYLNWYQQKPGKAPKLLIYAASYLESGVPSRFSGSGSGTDFTLTISSLQPEDFATYYCQQSHEDPYTFGQGTKVEIKRTVAAPSVFIFPPSDEQLKSGTASVVCLLNNFYPREAKVQWKVDNALQSGNSQESVTEQDSKDSTYSLSSTLTLSKADYEKHKVYACEVTHQGLSSPVTKSFNRGEC
notes: also called Lys317A1a
Consider B4, for which the “ratio to native IgG1” value is 0.92 ratio in test [1]; 1.1 ratio in test [2]; 1.18 ratio in test [3]; 1.13 ratio in test [4]; 1.44 ratio in test [5].

B5: anti-IgE E27 IgG1 Lys338Ala (antibody)
heavy: not shown
light: DIQLTQSPSSLSASVGDRVTITCRASKPVDGEGDSYLNWYQQKPGKAPKLLIYAASYLESGVPSRFSGSGSGTDFTLTISSLQPEDFATYYCQQSHEDPYTFGQGTKVEIKRTVAAPSVFIFPPSDEQLKSGTASVVCLLNNFYPREAKVQWKVDNALQSGNSQESVTEQDSKDSTYSLSSTLTLSKADYEKHKVYACEVTHQGLSSPVTKSFNRGEC
Consider B5, for which the “ratio to native IgG1” value was 0.9 ratio in test [1]; 0.15 ratio in test [2]; 0.63 ratio in test [3]; 0.78 ratio in test [4]; 1.14 ratio in test [5].

B6: anti-IgE E27 IgG1 Lys288Ala (antibody)
heavy: not shown
light: DIQLTQSPSSLSASVGDRVTITCRASKPVDGEGDSYLNWYQQKPGKAPKLLIYAASYLESGVPSRFSGSGSGTDFTLTISSLQPEDFATYYCQQSHEDPYTFGQGTKVEIKRTVAAPSVFIFPPSDEQLKSGTASVVCLLNNFYPREAKVQWKVDNALQSGNSQESVTEQDSKDSTYSLSSTLTLSKADYEKHKVYACEVTHQGLSSPVTKSFNRGEC
As to B6, the “ratio to native IgG1” value stood at 0.88 ratio in test [1]; 1.06 ratio in test [2]; 1.14 ratio in test [3]; 1.15 ratio in test [4]; 0.38 ratio in test [5].

B7: anti-IgE E27 IgG1 His433Ala (antibody)
heavy: not shown
light: DIQLTQSPSSLSASVGDRVTITCRASKPVDGEGDSYLNWYQQKPGKAPKLLIYAASYLESGVPSRFSGSGSGTDFTLTISSLQPEDFATYYCQQSHEDPYTFGQGTKVEIKRTVAAPSVFIFPPSDEQLKSGTASVVCLLNNFYPREAKVQWKVDNALQSGNSQESVTEQDSKDSTYSLSSTLTLSKADYEKHKVYACEVTHQGLSSPVTKSFNRGEC
On to B7, for which the “ratio to native IgG1” value in test [1] was 0.98 ratio; in test [2], 1.02 ratio; in test [3], 0.79 ratio; in test [4], 0.92 ratio; in test [5] it was 0.41 ratio.

B8: anti-IgE E27 IgG1 Lys360Ala (antibody)
heavy: not shown
light: DIQLTQSPSSLSASVGDRVTITCRASKPVDGEGDSYLNWYQQKPGKAPKLLIYAASYLESGVPSRFSGSGSGTDFTLTISSLQPEDFATYYCQQSHEDPYTFGQGTKVEIKRTVAAPSVFIFPPSDEQLKSGTASVVCLLNNFYPREAKVQWKVDNALQSGNSQESVTEQDSKDSTYSLSSTLTLSKADYEKHKVYACEVTHQGLSSPVTKSFNRGEC
In the case of B8, the “ratio to native IgG1” value in test [1] was 1.02 ratio; in test [2], 1.23 ratio; in test [3] it was 1.12 ratio; in test [4], 1.12 ratio; in test [5] it was 1.3 ratio.

B9: anti-IgE E27 IgG1 Leu309Ala (antibody)
heavy: not shown
light: DIQLTQSPSSLSASVGDRVTITCRASKPVDGEGDSYLNWYQQKPGKAPKLLIYAASYLESGVPSRFSGSGSGTDFTLTISSLQPEDFATYYCQQSHEDPYTFGQGTKVEIKRTVAAPSVFIFPPSDEQLKSGTASVVCLLNNFYPREAKVQWKVDNALQSGNSQESVTEQDSKDSTYSLSSTLTLSKADYEKHKVYACEVTHQGLSSPVTKSFNRGEC
Turning to B9, the “ratio to native IgG1” value in test [1] was 0.93 ratio; in test [2], 1.07 ratio; in test [3] it was 1.26 ratio; in test [4], 1.13 ratio; in test [5], 0.63 ratio.

B10: anti-IgE E27 IgG1 Ser239Ala (antibody)
heavy: not shown
light: DIQLTQSPSSLSASVGDRVTITCRASKPVDGEGDSYLNWYQQKPGKAPKLLIYAASYLESGVPSRFSGSGSGTDFTLTISSLQPEDFATYYCQQSHEDPYTFGQGTKVEIKRTVAAPSVFIFPPSDEQLKSGTASVVCLLNNFYPREAKVQWKVDNALQSGNSQESVTEQDSKDSTYSLSSTLTLSKADYEKHKVYACEVTHQGLSSPVTKSFNRGEC
In the case of B10, the “ratio to native IgG1” value in test [1] is 0.81 ratio; in test [2], 0.26 ratio; in test [3], 0.76 ratio; in test [4] it was 0.73 ratio; in test [5] it was 1.06 ratio.

B11: anti-IgE E27 IgG1 Lys326Ala (antibody)
heavy: not shown
light: DIQLTQSPSSLSASVGDRVTITCRASKPVDGEGDSYLNWYQQKPGKAPKLLIYAASYLESGVPSRFSGSGSGTDFTLTISSLQPEDFATYYCQQSHEDPYTFGQGTKVEIKRTVAAPSVFIFPPSDEQLKSGTASVVCLLNNFYPREAKVQWKVDNALQSGNSQESVTEQDSKDSTYSLSSTLTLSKADYEKHKVYACEVTHQGLSSPVTKSFNRGEC
As for B11, the “ratio to native IgG1” value in test [1] was 1.03 ratio; in test [2] it was 1.23 ratio; in test [3], 1.41 ratio; in test [4] it was 1.23 ratio; in test [5] it was 1.03 ratio.

B12: anti-IgE E27 IgG1 Lys334Ala (antibody)
heavy: not shown
light: DIQLTQSPSSLSASVGDRVTITCRASKPVDGEGDSYLNWYQQKPGKAPKLLIYAASYLESGVPSRFSGSGSGTDFTLTISSLQPEDFATYYCQQSHEDPYTFGQGTKVEIKRTVAAPSVFIFPPSDEQLKSGTASVVCLLNNFYPREAKVQWKVDNALQSGNSQESVTEQDSKDSTYSLSSTLTLSKADYEKHKVYACEVTHQGLSSPVTKSFNRGEC
notes: also called G55 K334A
Consider B12, for which the “ratio to native IgG1” value came to 1.06 ratio in test [1]; 1.39 ratio in test [2]; 0.9 ratio in test [3]; 1.01 ratio in test [4]; 1.05 ratio in test [5].

B13: anti-IgE E27 IgG1 Lys290Ala (antibody)
heavy: not shown
light: DIQLTQSPSSLSASVGDRVTITCRASKPVDGEGDSYLNWYQQKPGKAPKLLIYAASYLESGVPSRFSGSGSGTDFTLTISSLQPEDFATYYCQQSHEDPYTFGQGTKVEIKRTVAAPSVFIFPPSDEQLKSGTASVVCLLNNFYPREAKVQWKVDNALQSGNSQESVTEQDSKDSTYSLSSTLTLSKADYEKHKVYACEVTHQGLSSPVTKSFNRGEC
notes: also called K290(307)A
Consider B13, for which the “ratio to native IgG1” value in test [1] was 1.01 ratio; in test [2], 1.31 ratio; in test [3], 1.38 ratio; in test [4] it was 1.3 ratio; in test [5], 0.79 ratio.

Values taken from patent US7183387 (Genentech, dated 2007).
